“Also recorded” adds a separate entry of the source.
T1: βKlotho-FGF19 (Mus musculus, UniProt Q99N32)
T1 construct: the ectodomain of murine βKlotho (F53 to L995) was expressed in HEK293 cells; FLAG (C); made in house; host or cells: HEK293 (βKlotho ectodomain); E. coli (FGF19)
T1 sequence (Q99N32 53-995): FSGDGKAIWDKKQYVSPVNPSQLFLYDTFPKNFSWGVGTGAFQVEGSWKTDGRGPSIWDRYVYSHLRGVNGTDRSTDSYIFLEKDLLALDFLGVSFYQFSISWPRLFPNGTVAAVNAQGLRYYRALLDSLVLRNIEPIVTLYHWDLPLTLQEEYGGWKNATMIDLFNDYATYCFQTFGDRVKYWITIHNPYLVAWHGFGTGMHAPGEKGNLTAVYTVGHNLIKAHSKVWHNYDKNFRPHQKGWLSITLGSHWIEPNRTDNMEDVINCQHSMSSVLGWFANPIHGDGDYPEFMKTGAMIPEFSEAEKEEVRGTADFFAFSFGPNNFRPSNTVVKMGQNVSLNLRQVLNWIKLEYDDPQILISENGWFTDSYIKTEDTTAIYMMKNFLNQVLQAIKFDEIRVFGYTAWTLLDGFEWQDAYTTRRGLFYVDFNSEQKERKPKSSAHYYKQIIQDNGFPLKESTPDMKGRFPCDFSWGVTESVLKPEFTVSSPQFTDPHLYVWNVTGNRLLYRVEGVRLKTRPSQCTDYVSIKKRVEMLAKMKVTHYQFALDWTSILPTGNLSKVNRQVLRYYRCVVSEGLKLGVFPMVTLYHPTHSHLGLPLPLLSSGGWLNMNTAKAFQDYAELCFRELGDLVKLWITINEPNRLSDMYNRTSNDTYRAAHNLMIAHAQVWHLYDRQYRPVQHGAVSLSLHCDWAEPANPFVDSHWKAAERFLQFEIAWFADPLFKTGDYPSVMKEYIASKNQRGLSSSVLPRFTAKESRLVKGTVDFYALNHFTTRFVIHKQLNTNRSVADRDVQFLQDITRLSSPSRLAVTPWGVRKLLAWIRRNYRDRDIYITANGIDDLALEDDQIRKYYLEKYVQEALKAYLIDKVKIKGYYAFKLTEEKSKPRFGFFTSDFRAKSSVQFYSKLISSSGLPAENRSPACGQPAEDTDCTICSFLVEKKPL

T2: FGFR1c ectodomain (Homo sapiens, UniProt P11362)
T2 construct: made in house; host or cells: E. coli
T2 sequence (P11362 142-365): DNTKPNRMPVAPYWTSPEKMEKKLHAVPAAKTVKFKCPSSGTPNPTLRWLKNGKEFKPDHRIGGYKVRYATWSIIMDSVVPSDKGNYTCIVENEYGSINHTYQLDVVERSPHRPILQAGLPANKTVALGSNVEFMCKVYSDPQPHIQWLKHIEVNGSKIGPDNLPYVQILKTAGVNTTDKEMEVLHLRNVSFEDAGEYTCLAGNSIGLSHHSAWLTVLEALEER


How the values were obtained:
βKlotho-FGF19 = molecular target: T1, βKlotho-FGF19; experiment: SPR specificity: βKlotho binding to immobilized FGF19^23-216; parameters: species or system murine βKlotho, human FGF19; settings: molar ratio of 2:1 to βKlotho
FGFR1c ectodomain = molecular target: T2, FGFR1c ectodomain; experiment: SPR: FGFR1c ectodomain passed over immobilized FGF23; assay type: binding
Method: Surface plasmon resonance (SPR) spectroscopy experiments were performed on a Biacore 2000 instrument (Biacore AB), and FGF23-FGFR1c-Klotho interactions were studied at 25° C. in HBS-EP buffer (10 mM HEPES-NaOH, pH 7.4, 150 mM NaCl, 3 mM EDTA, 0.005% (v/v) polysorbate 20). Proteins were immobilized by amine coupling on flow channels of research grade CM5 chips (Biacore AB). Proteins were injected over a CM5 chip at a flow rate of 50 μl min^−1, and at the end of each protein injection (180 s), HBS-EP buffer (50 μl min^−1) was flowed over the chip to monitor dissociation for 180 s. The chip surface was then regenerated by injecting 50 μl of 2.0 M NaCl in 10 mM sodium acetate, pH 4.5. To control for nonspecific binding in experiments where Klotho ectodomain was immobilized on the chip, β-glucuronidase was coupled to the control flow channel of the chip (˜26-32 fmole/mm^2). […] The data were processed with BiaEvaluation software (Biacore AB). For each protein injection over a Klotho chip, the nonspecific responses from the β-glucuronidase control flow channel were subtracted from the responses recorded for the Klotho flow channel. Similarly, for each protein injection over a FGF chip, the nonspecific responses from the FHF1B control flow channel were subtracted from the responses recorded for the FGF flow channel. […]

Row | Molecule | inhibition of βKlotho binding to immobilized FGF19 (βKlotho-FGF19) | binding of FGF23 to FGFR1c ectodomain alone (FGFR1c ectodomain)
1 | FGF23^180-251: 72-amino acid C-terminal tail of human FGF23 (S180 to I251), expressed in E. coli (protein, listed as Homo sapiens) SAEDDSERDPLNVLKPRARMTPAPASCSQELPSAEDNSPMASDPLGVVRGGRVNTHAGGTGPEGCRPFAKFI | failed to inhibit; also recorded: no inhibition | –
2 | FGF23^28-251: human FGF23 (A28 to I251), bioactive full-length ligand expressed in E. coli (protein, listed as Homo sapiens) ASPLLGSSWGGLIHLYTATARNSYHLQIHKNGHVDGAPHQTIYSALMIRSEDAGFVVITGVMSRRYLCMDFRGNIFGSHYFDPENCRFQHQTLENGYDVYHSPQYHFLVSLGRAKRAFLPGMNPPPYSQFLSRRNEIPLIHFNTPIPRRHTRSAEDDSERDPLNVLKPRARMTPAPASCSQELPSAEDNSPMASDPLGVVRGGRVNTHAGGTGPEGCRPFAKFI | – | poor binding

Reference: patent US8889621B2, “Inhibiting binding of FGF23 to the binary FGFR-Klotho complex for the treatment of hypophosphatemia” (New York University, priority 2009, dated 2014)
